According to patent US12252714B2, “Halogenation of complex organic compounds” (REGENTS OF THE UNIVERSITY OF MICHIGAN, priority 2018, dated 2025):
Where a chain is given by its changes, count along the chain named. In names and notes the source's numbering stands. Like-named read-outs stand apart in the source and are kept apart here.

Legend:
[1] = MalA biochemical activity assays, mutants versus wild-type MalA; conditions: for site-selectivity of chlorination: chlorination of compound 2, C8 versus C9; for halogenase activity relative to wild-type MalA: chlorination of compound 2
Experimental: Biochemical activity assays were performed in a 100 μL volume with the following components: 18 μM MalA, 54 μM HpaC flavin reductase,^3 100 μM FAD, 50 mM NaCl, 250 μM substrate, 5 mM NADH, and brought to total volume with reaction buffer (same as storage bufferNaBr). The chlorination reactions proceeded for 20 minutes and the bromination reactions proceeded overnight. The reactions were extracted with ethyl acetate ([…], in triplicate) and dried down under nitrogen gas. The dried extract was resuspended in LC/MS grade methanol to a concentration of around 10 μM for LC/MS analysis. High resolution mass spectrometry was performed using electrospray ionization on an Agilent quadrupole time-of-flight spectrometer (Q-TOF 6500 series). Biochemical activity was monitored via the following HPLC method using acetonitrile and water: 65% acetonitrile for 5 minutes, gradient over 10 minutes to 95% acetonitrile, 95% acetonitrile for 5 minutes, gradient over 2 minutes to 65% acetonitrile, 65% acetonitrile for 11 minutes to re-equilibrate with a flow rate of 0.3 mL/minute, monitoring at 240 nm on a Phenomenex Lux cellulose-3, cellulose Tris (4-methylbenzoate) 250×4.6 mm column.

[2] = cited from earlier work

B1: MalA H253F: MalA halogenase variant, His253 substituted with phenylalanine (protein, UniProt L0E155 1-667, looked up, variant H253F)
Flavin-dependent halogenase …: MAPTPKYTFTERAAAGNLSDAEILNSNNPTGSELPDESDVVVGGAGIHGLIYALHASKYKPNNLKISVIEKNTRPGYKIGESTLPIFYTWCKLHGISAAYLLRLFGLKDGLCFYFLDRENQGQYTDFCSVGAPGLVLASLQIERPMSELLFTILAQRNGVNVYHGREVDFKSTVVQGGGQGNKIAVSRGKYDSTPKTIDSALFVDATGRFRQFCSKKAPRHRFDGWNCNAFWGYFTAPKDESKIPFDLYEGDFTNHLCFPEGWVWVIRLPSWEGSLIANLMDMVTYILECADAGVPGDELPSSEELARMFGLKFQWVTSIGFAVRNDVKYPEDLSAYGTREAEQKFNYFVQKYELLQQFMSNFELIENLYGPGTTWFIRKTLAYQSPVVSGPGWLAIGDACGFTNPLYSPGINVGMSTSTWAAQLSHRIVEIGKSAPADAAESSIRKLLVPYDDYCKSLVPALEQMNRFNYVCYRDTRLGPQVACLWQFFAGIERYLSDVNIETFAHYAIKWVWGAMVPEYQQVAQKCIEHIETVPLDERLPDAMVDELLAFSNRIKSAAVAADDFSLRWDAILRSFDRSLNFVEGKTSRDIYTRQCSGCGAWLQLRPDWKKCHSCGLLGTEPQTAVTFDPPLTAEEEALLYAAWNTAPKYDPSKELKLPTPTRPAA
site-selectivity profile of bromination ([1]; bromination of compound 2): same product profile as the wild-type MalA
site-selectivity of chlorination [1]: selectivity for producing the C8-chlorinated compound 4

B2: MalA S129 Å/P85S: C8-selective MalA halogenase double mutant (protein, UniProt L0E155 1-667, looked up, variant S129A P85S)
Flavin-dependent halogenase …: B1 Flavin-dependent halogenase … with P85S, S129A, F253H
site-selectivity of chlorination [1]: C8-selective

B3: S129A/I493S: C9-selective MalA halogenase double mutant (protein, listed as Malbranchea aurantiaca)
chain: B1 Flavin-dependent halogenase … with S129A, F253H, I493S
modifications: MalA (S129A/I493S) protein
site-selectivity of chlorination [1]: C9-selective

B4: MalA F489H: MalA halogenase variant, Phe489 substituted with histidine (protein, UniProt L0E155 1-667, looked up, variant F489H)
Flavin-dependent halogenase …: B1 Flavin-dependent halogenase … with F253H, F489H
halogenase activity relative to wild-type MalA [1]: significantly decreased

B5: MalA G131S: C9-selective MalA halogenase mutant (protein, UniProt L0E155 1-667, looked up, variant G131S)
Flavin-dependent halogenase …: B1 Flavin-dependent halogenase … with G131S, F253H
site-selectivity of chlorination [1]: C9-selective

B6: D109A: MalA halogenase D109A mutant (protein, listed as Malbranchea aurantiaca)
chain: B1 Flavin-dependent halogenase … with D109A, F253H
modifications: Wild-type MalA protein
notes: MalA halogenase D109A mutant
halogenase activity relative to wild-type MalA [1]: very low activity

B7: MalA K108A: MalA halogenase mutant of the catalytic lysine Lys108 (protein, UniProt L0E155 1-667, looked up, variant K108A)
Flavin-dependent halogenase …: B1 Flavin-dependent halogenase … with K108A, F253H
halogenase activity relative to wild-type MalA [1]: inactive

B8: Rdc2: eukaryotic FDH Rdc2, literature comparison (protein, UniProt B3FWT7 22-519, looked up)
Flavin-dependent halogenase …: AAALAREGNDVVLLEADQHPRYHIGESMLPSLRPLLRFIDLEDKFDAHGFQKKLGAAFKLTSKREGSHGPRGYSWNVVRSESDEILFNHARESGAQAFQGIKINAIEFEPYEEEYPNGEKVANPGKPTSAKWSSKDGSSGDIAFKYLVDATGRIGIMSTKYLKNRHYNEGLKNLAIWGYYKNNIPWAQGTPRENQPFFEGMRDGAGWCWTIPLHNGTVSVGAVMRKDLFFEKKKSLGENATNTQIMAECMKLCPTIGELLAPAELVSDIKQATDYSYSATAYAGPNFRIVGDAGCFIDPFFSSGHHLAVAGALAAAVSINASIKGDCTEYEASRWHAKKVDEGYTLFLLVVMAALKQIRMQENPVLSDVDEDGFDRAFQFLRPEAVKKFTKEDVAQTIDFAVHALNNMAELDMDIPEHMINGDKEGENGVTNGNNGAAKTAGLASNMEKLTNDEEKVLNGLRILGKAAPGGTLADFEGTAIDGLMPRLEHGKLGLNKV
catalytic efficiency ([2]; initial chlorination reaction): 2.93 min⁻¹ mM⁻¹
catalytic efficiency ([2]; second chlorination reaction): 0.11 min⁻¹ mM⁻¹
